# Measurements reported in the nanobody polyreactivity screen of Harvey et al. (2022).
# Assay: yeast display, Sf9 membrane polyspecificity reagent, FACS + sequencing; frameworks hold sequencing errors
# Procedure, shortened: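 Using colony PCR, genes from sorted yeast display clones were amplified, then sequenced on MiSeq at 2 × 250 and filtered by CDR length. The clones had been stained with 10% biotinylated, detergent-solubilized Sf9 membrane reagent for 1 hour at 4 °C and sorted by FACS into low and high (top ~1%) gates on anti-HA and streptavidin fluorescence. Polyreactivity labels come from the gate of origin.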
row,Sequence,polyreactivity (PSR sort gate)
1,QVQLVESGGGLVQAGGSLRLSSAASGSTFYYYAMGWYRQAPGKERELVATISRSTARTFYADSVKGRFTISRDNEKNTVYLQMNSLKPEDTAVYYCAATSYVSVYPSYYRFGTYGYWGQGTQVTVSS,high polyreactivity
2,QVQLVESGGGLVQAGGSLRLSSAASGSTSRYYDMGWYRQSPGKVRELVAAITWSGGTTYYADSVKGRFTISRDNAKNTVYLQMNSLKPDDPAVYYCAADASYTYYEFVYWGQGTQVTVSS,low polyreactivity
3,QVQLVESGGGLVQAGGSLRLSSAASGYIFTPYAMGWYRQAPGKERELVAAISSSTVRTFYADSVKGRFTISRDNAKNTVYLQMNSLKPEDTAVYYCAARGYWGQGTQVTVSS,high polyreactivity
4,QVQLVESGGGLVQAGGSLRLSSAATGSIFRGNAIGWYRQAPWKELELVASISYSRGSTYYADSVKGRFTISRDNEKNTVYLQMNSVKPEETAVYYCARDYDAAYYLSEYIRSVEFDYWGQGTQVTVSS,low polyreactivity
5,QVQLVESGGGLVQAGGSLRLSSADSGRTFWDNTMGWYRQAPGKERELVAAISGGDSTYYADSVKGRFTISRDNAKNTVYLQMNSLKPEDTAVYYCAAAYATPTLYYYWGQGTQVTVSS,low polyreactivity
6,QVQLVESGGGLVQAGGSLRLSSADSGRTFYGNAMGWYRQSPGKERELVAAISKRGGNTYYADSVKWRFTISRDNAKNTVYLQMNSLKPEDTAVYYCARQARTPSSWYIYDSWGQGTQVTVSS,high polyreactivity
7,QVQLVESGGGLVQAGGSLRLSSADSGSIFVYNDMGWYRQAPGKERELVARIDWSGDRTYADSVKGRFTISRDNAKNTVYLQMNSLKPEDTAVYYCNADEWRWDEIIPYAVDYCGQGTQVTVSS,low polyreactivity
8,QVQLVESGGGLVQAGGSLRLSSAGSGSTLGFNAMGWYRQAPGKEREFVAGNSASGSSTYFADSVKGRFTISRDNAKNTVYLHINSLKTEDSAVYYFYARVRVRLGRNWSTYYYWGQGTEVTVSS,high polyreactivity
9,QVQLVESGGGLVQAGGSLRLSSASSGNILQGNAMGSYRQAPGKEMELVAAITSDGSTYADSVKGRFTISRDNAQNTVYLQMNSLKPEDTAVFYCNADGITSLPVTALDYWGQGTQVTVSS,low polyreactivity
10,QVQLVESGGGLVQAGGSLRLSSSASGSIFASNAMGWYRQEPGKERELVAAINSGDSTNYADSVKGRFTISRDNAKNTVYLQMNSLKPEDTAVYYCNAEYRYYQKTPVLYTNVEYDYWGQGTQVTVSS,low polyreactivity
11,QVQLVESGGGLVQAGGSLRLSWAASGFTFPAYPMGWYRQAPGKERELVASISSSGRTNYADSEKGRFTISRDNAKNTVYLEMYSLKPEDTAVYYCAALLKQRSTSYGYWGQGSQVTVSS,high polyreactivity
12,QVQLVESGGGLVQAGGSLRLSWAASGGTFYFNAMGWYLQAAGKEWELVATIRYSGGSTYYADSVKGRFTISRDNAKNTAYLQMNSLKPADTAVYYCNARPRYLSPYRPFKYNYWGQGTQVTVSS,high polyreactivity
13,QVQLVESGGGLVQAGGSLRLSWAASGITFYVYAMGWYRQAPGKERELVAAISRRGGSTSYADSVKGRFTISRDNAKNTVYLQMNSLKPEDTAVYYGAAGPFYGGIVRRYDYWGQGTQVTVSS,low polyreactivity
14,QVQLVESGGGLVQAGGSLRLSWAASGLTFETYVMGWYRQAPGKERELVAAISSSGRTYYADSVKGRFTISRDNAKNTVYLQMNSLKPEDTAVYYCAARGREFGYWGQGTQVTVSS,high polyreactivity
15,QVQLVESGGGLVQAGGSLRLSWAASGRIFYGYTMGWYRQAPGKERELVASITIRGSRTYYADSVKGRCTISRDNAKNTVYLQINSLKPEDTAVYYCAADFVPARTVHRYDYWGQGTQVTVSS,low polyreactivity
16,QVQLVESGGGLVQAGGSLRLSWAASGRIPYNAMGWYRQAPGKERELVAAISRSGTRTYYADSVKGRFTISRDNAKNTVFFQMNSLKPEDTAVYYCAAEYTRSFYIYYRFGYWVQGTQVTVSS,high polyreactivity
17,QVQLVESGGGLVQAGGSLRLSWAASGRLFDGYAMGWYRQAPGTERELVATISSSGGATYYADSVKGRFTISRDNAKNTVYLQMNSLKPEDTAVYYCATAGSVSHWYSYFAFWERDYWGQGTQVTVSS,low polyreactivity
18,QVQLVESGGGLVQAGGSLRLSWAASGRTFGVYAMGWYRQAPGTERELVATITRSGGRTYYADSVKGRFTLSRDTAKNTVYLQMNSLKPEATAVYYCNAGHGSLRYNYWGQGTQVTVSS,high polyreactivity
19,QVQLVESGGGLVQAGGSLRLSWAASGRTFKSNAMGWYRPAPGKERELVAAISWGGGSTYYADSVKGRFTISRDNAKNTVYLQMNSLKPEDTAVYYCARRDIYGSYGFYTGGVDYWGQGTQVTVSS,low polyreactivity
20,QVQLVESGGGLVQAGGSLRLSWAASGRTFNRYVMGWYRQAPGKERELVAAISRSGTSTYYADSVKGRFTISRDNAKNTVYLQMNSLKPEDTAVYYCAREYQTVSFKNYYWGQGTQVTVSS,high polyreactivity
21,QVQLVESGGGLVQAGGSLRLSWAASGRTLKYNAMGWYRQAHGKERELVSAISYSGSSTYYADSVKGRFTISRDNAKNTVYLQMNSLKPEDTAVYYCNTARPTAAYDYWGQGTQVTVSS,low polyreactivity

row,Sequence,polyreactivity (PSR sort gate)
1,QVQLVESGGGLVQAGGSLRLSWAASGSIFDENAMGLSRQAPGKERELVAAISRSTGSTYYADSVKGRFTISRDKAKNTVYVQMNSLKPEDTAVYYCNALTYLRGPPWYTLDYWGQGTQVTVSS,low polyreactivity
2,QVQLVESGGGLVQAGGSLRLSWAASGSIITSNGMGWYRQAPGKERELVAAITSGTSTYYADSVKGRFTISRDNAKNTVYLQMNSLKPEDTAVYYCAAGRWWVYRYARYYYWGQGTQVTVSS,high polyreactivity
3,QVQLVESGGGLVQAGGSLRLTCAASASNFVSYPMGWYRPAHGKERELVAAITSAGTTYYAYSVKGRFTISRDNAKNTVYLQMNTLKPEDTAVYYCNTDASFKRTRVSPETEYGYWGQGTQVTVSS,low polyreactivity
4,QVQLVESGGGLVQAGGSLRLTCAASGFIFGTYAMGWYRLSPGKERELVAAISSGGSTYYAYSVKGRFTISRDNAKYTVYLQMNSLKPEDTAVYYCAKEGGTYRIFNYWGQGTQVTLSS,low polyreactivity
5,QVQLVESGGGLVQAGGSLRLTCAASGFIFRKYTMGWYRQAPGKERELVATLDSSGGSTYYADSVKGRFTISRDNAKNTVYLQMNSLKPEDTAVYYCNADLRELSPWYWYSGEMDYWGQGTQVTVSS,low polyreactivity
6,QVQLVESGGGLVQAGGSLRLTCAASGFIFRSYAMGWYRQAPGKERELVAVISRRGVNTHYADSVKGRFTISRDNAKNTVYLQMNSLKPEDTAVYYCAKGLTALGDYWGQGTQVTVSS,high polyreactivity
7,QVQLVESGGGLVQAGGSLRLTCAASGFIFSKNAMGWYRQPPGKERELVAAIDTSGSSTYYAYSVKGRFTISRDNAKNSVYLQMISLKPEDTAVYYCNRDDYFFSRFDYWGQGTQVTVTS,low polyreactivity
8,QVQLVESGGGLVQAGGSLRLTCAASGFIFVRNAMGWYRQAPGKERDLVAAISSRGGRTYYADSVKGRFTISRDNAKYTVYLQMNRLKPEDTAVYYCNADRDTQGDGYDYWGQGTQVTVSS,high polyreactivity
9,QVQLVESGGGLVQAGGSLRLTCAASGFTFFVYAMGWYRQAPGKERELVASITFRSGTTYYADSVKGRFTISRDNAKNTVYLQMNSLKPEDTAVYYCAADSRRSSRGYGYYYWGQGTQVTVSS,high polyreactivity
10,QVQLVESGGGLVQAGGSLRLTCAASGFTFHVNTMGWYRQAPGKEMELVAAISWSGGSTYYADSVKGRFTISRDTAKKTVYLQMNSLNPEDTAVYYCNAVPVSYRGVYWGQGTQVTVSS,low polyreactivity
11,QVQLVESGGGLVQAGGSLRLTCAASGFTFRSYAMGWYRQAPGKEREWVAVISSSGGSTYYADSVKARFTISRDNAKNTVYLQMNSLKPEDTAVYYCNRRPATRAYLYDYWGQGTQVTGSS,high polyreactivity
12,QVQLVESGGGLVQAGGSLRLTCAASGFTFSYYTMGRYRQAPGKERELVAAISSGGSTYYADSVKGRFTISRDNAKNSVYLQMNSLKPEDTAVYYCNAYYGSYSPANGEYWGQGTQVTVSS,high polyreactivity
13,QVQLVESGGGLVQAGGSLRLTCAASGFTFYRYDMGWYRQAPGKERELVAAITNNGGNTYYADSVKGRFTISRDNAKNTVYLQMNSLKPDVTAVYYCATKRYYWRGYWGQGTQVSVSS,high polyreactivity
14,QVQLVESGGGLVQAGGSLRLTCAASGFTIYLYTMGWYRQAPGKERELVATISWSGGSTYYADSVKGRFTISRDNAKNTVYLHMNSLKPEDTAVYYCAKAYNGRYTWRYDYWGQGTQVTVSS,high polyreactivity
15,QVQLVESGGGLVQAGGSLRLTCAASGGTFDRNAMGWYRQAPGKERELVATITRRAGNTYYAYSVKGRFTISRDNAKNTVYLQMNSLKPEDTAVYYFAAYPLRSRRYYYWGQGTQVTVSS,high polyreactivity
16,QVQLVESGGGLVQAGGSLRLTCAASGGTFQVNAMGWYRQAPGKEMELVAAINRSGGGTTYADSVKGRFTISRDNAKNTVYLQMNSLKPEDTAVYYCAVDFYTYYYVEYGYWGQGTEVTVSS,high polyreactivity
17,QVQLVESGGGLVQAGGSLRLTCAASGIIFASNAMGWYRQAPGKEMELVATINWTDSSTYYADSVKGRFTISRDNAKNTVYLQMNSLKPEDTAVYYCNGVPHWFYRYGRYDYWGQGSQVTVSS,low polyreactivity
18,QVQLVESGGGLVQAGGSLRLTCAASGIIFLDYVMGWYRQAPGKERELVAAINSGGSTYYADSVKGRFTISRDNAKNTVYLQMNSLKPEDTAVYYCAAVDYYKFDYWGQVTQVTVSS,low polyreactivity
19,QVQLVESGGGLVQAGGSLRLTCAASGIIFQRNTMGWYRQAPGKERELVAAITSRGGRTYYADSVKGRFTISRDNAKNTVYLQMNSLKPEDTAVYYCAALLYFYSRPYGYWGQGTQVTVSS,high polyreactivity
20,QVQLVESGGGLVQAGGSLRLTCAASGIIFRFYGMGWYRQEPGKEREFVAAISGGGGSTYYADSVKGRFTISRDNAKKTVYLQMNSLKPEDTAVYYCARYTYRSAFEYWGQGTQVTVSS,high polyreactivity
